Assay results from patent US20070237775A1 (Eli Lilly, published 2007).

T1: human ghrelin peptide spanning amino acids 20-28 (human)
T1 construct: also called hGhrelin 20-28
T1 peptide: KPPAKLQPR

T2: human ghrelin peptide spanning amino acids 18-28 (human)
T2 construct: also called hGhrelin 18-28; ghrelin peptide 18-28
T2 peptide: SKKPPAKLQPR

T3: human ghrelin peptide spanning amino acids 4-20 (human)
T3 peptide: FLSPEHQRVQQRKESKK


Experiments:
[1] = molecular target: T1, human ghrelin peptide spanning amino …; assay: peptide competition with full-length hGhrelin for the Fab
[2] = molecular target: T2, human ghrelin peptide spanning amino …; assay: FLIPR calcium assay, peptide competing with hGhrelin for the Fab
Description: (§1) The wells are then washed twice with HBSS and 50 μL FLIPR buffer is then added per well.
(§2) Samples are prepared by combining 7.2 μl calcium concentrate (CaCl₂-2H₂O in water at 3.7 mg/ml mixed 1:1 with HBSS and filter sterilized) with 30 μl peptide, 30 μl Fab (of varying concentration), and 16.8 μl hGhrelin (2.5 μM stock) in 3.75% BSA/50% HBSS. The final concentration of the sample solution is 0.75% BSA, and calcium at approximately the same concentration as in the FLIPR buffer. Fifty microliters of the sample solution is added to the 50 μl FLIPR buffer in the well with the AV12 cells. The final concentration of the peptide is 100 nM and the final concentration of the hGhrelin is 0.83 nM. The cell plate is shaken for about 15 seconds prior to loading it into the FLIPR instrument. Test samples or control samples are added to each well, and read by a Fluorometric Imaging Plate Reader (Molecular Devices).
(§3) If there is no Fab or an irrelevant antibody present in the solution, the full-length hGhrelin will be free to bind the GHS-R1a receptor on the AV12 cells and signal transduction will occur resulting in comparatively high values in the assay. If a Fab is present that binds to the full-length hGhrelin in the solution, then the full-length hGhrelin binding to the GHS-R1a receptor is inhibited and signal transduction is thereby inhibited resulting in comparatively lower values in the assay. However, if a peptide (i.e., a fragment of human ghrelin) is also added to the solution and the Fab binds the peptide, then the full-length hGhrelin is not prevented from binding the GHS-R1a receptor, signal transduction is not inhibited, and the values in the assay are comparatively high. […] The peptides competing with hGhrelin for Fab binding were used in the assay at a concentration over 50 times that of hGhrelin.

[3] = molecular target: T3, human ghrelin peptide spanning amino …; assay: as above
Description: as §1, §2, §3

Binder | binding result [1] | binding result [2] | binding result [3]
Fab 3281 (Fab, V domains shown, Murine Fab from an Omniclonal antibody library (immunized C57/Bl6 mice); kappa light chain (captured and detected with goat anti-mouse kappa)) VH: QVQLQQSRAELAKPGASVKMSCKASGYTFTSYWMHWVKQGPGQGLEWIGYINPSTGYTEYTQKFKDKATLTADKSSSTAYMQLSSLTSEDSAVYYCATDGYDEDYWGQGTTLTVSS VL: DAVMTQIPLTLSVTIGQPASISCRSSQSLGHSNGNTYLHWYLQKPGQSPKLLIYKVSNRFSGVPDRFSGSGSGTDFTLKISRVEAEDLGTYFCSQSTLVPWTFGGGTKLEIKR | no binding | no binding (tested: peptide 100 nM) | no binding (tested: peptide 100 nM)
Fab 4731 (Fab, V domains shown, Murine Fab, kappa light chain) VH: QVQLQQSRAELAKPGASVKMSCKASGYTFTSYWMHWVKQGPGQGLEWIGYINPSTGYTEYTQKFKDKATLTADKSSSTAYMQLSSLTSEDSAVYYCATDGYDEDYWGQGTTLTVSS VL: DVVMTQTPLSLPVSLGDQASISCRSSQSLVHSNGNTYLHWYLQKPGQSPKLLIYKVSNRFSGVPDRFSGSGSGTDFTLKISRVEAEDLGTYFCSQSTLVPWTFGGGTKLEIKR |  |  | no binding (tested: peptide 100 nM)
Fab 4281 (Fab, V domains shown, Murine Fab, kappa light chain) VH: QVQLQQSRAELAKPGASVKMSCKASGYTFTSYWIHWIKQRPGQGLEWIGYIDPGIGNIEYNQKFQDKATLTADKSSSIVYMQLNRLTSEDSAVYYCATDGYDEDYWGQGTTLTVSS VL: DVVMTQTPLSLPVSLGDQASISCRSSQSLVHSNGNTYLHWYLQKPGQSPKLLIYKVSNRFSGVPDRFSGSGSGTDFTLKISRVEAEDLGTYFCSQSTLVPWTFGGGTKLEIKR |  |  | no binding (tested: peptide 100 nM)
